Test results as given in US20150158921A1.
“And” between values parts separate entries of the source, which are not always exact repeats. Equal values may be shown once.

What was measured:
Test in all cases: cell-based or functional assay
[1] = biological target: human α6/α3β2β3 nAChR (human) (UniProt P17787)
human α7 nAChR (human) = human α7 nAChR (human) (UniProt P36544)
[2] = biological target: rat NMDA receptor NR1-2b/NR2A (rat) (UniProt P35439)
[3] = biological target: rat NMDA receptor NR1-2b/NR2B (rat) (UniProt P35439)
[4] = biological target: rat NMDA receptor NR1-2b/NR2C (rat) (UniProt P35439)
[5] = biological target: rat NMDA receptor NR1-2b/NR2D (rat) (UniProt P35439)
rat α6/α3β4 nAChR (rat) = rat α6/α3β4 nAChR (rat) (UniProt P12392)
rat α7 nAChR (rat) = rat α7 nAChR (rat) (UniProt Q05941)
rat α4β2 nAChR (rat) = rat α4β2 nAChR (rat) (UniProt P09483)
Sequence of rat α4β2 nAChR (rat) (P09483 31-630, chain 1 of 2): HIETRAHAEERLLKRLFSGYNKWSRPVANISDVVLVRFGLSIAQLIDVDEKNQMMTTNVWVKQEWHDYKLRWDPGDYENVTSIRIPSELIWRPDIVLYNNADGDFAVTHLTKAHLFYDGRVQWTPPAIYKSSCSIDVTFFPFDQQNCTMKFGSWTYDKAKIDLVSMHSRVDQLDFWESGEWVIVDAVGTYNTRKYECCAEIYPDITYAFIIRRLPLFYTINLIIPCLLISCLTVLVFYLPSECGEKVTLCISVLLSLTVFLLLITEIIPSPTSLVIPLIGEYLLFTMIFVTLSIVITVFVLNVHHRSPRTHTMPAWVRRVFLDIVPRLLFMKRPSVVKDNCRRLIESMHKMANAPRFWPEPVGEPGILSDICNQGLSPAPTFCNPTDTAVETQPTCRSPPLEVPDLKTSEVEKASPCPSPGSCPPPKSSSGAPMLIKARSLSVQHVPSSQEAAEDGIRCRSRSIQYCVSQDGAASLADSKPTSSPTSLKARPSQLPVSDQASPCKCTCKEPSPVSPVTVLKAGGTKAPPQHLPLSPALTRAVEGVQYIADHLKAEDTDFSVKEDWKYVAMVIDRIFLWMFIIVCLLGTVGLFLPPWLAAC
Sequence of rat α4β2 nAChR (rat) (P12390 25-500, chain 2 of 2, further chain): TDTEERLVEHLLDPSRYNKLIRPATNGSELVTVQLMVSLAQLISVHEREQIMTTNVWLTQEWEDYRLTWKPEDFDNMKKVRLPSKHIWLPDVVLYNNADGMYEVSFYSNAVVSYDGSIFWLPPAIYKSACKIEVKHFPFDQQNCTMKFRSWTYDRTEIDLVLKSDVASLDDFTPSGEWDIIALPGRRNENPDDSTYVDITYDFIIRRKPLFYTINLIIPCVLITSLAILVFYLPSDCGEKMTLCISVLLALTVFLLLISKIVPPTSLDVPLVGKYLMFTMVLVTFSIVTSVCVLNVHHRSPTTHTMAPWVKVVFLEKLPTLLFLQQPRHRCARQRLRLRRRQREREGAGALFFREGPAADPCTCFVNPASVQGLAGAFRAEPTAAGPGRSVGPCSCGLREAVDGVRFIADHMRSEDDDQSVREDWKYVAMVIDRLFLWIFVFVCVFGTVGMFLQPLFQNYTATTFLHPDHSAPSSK

Sequence of human α7 nAChR (human) (P36544 23-502): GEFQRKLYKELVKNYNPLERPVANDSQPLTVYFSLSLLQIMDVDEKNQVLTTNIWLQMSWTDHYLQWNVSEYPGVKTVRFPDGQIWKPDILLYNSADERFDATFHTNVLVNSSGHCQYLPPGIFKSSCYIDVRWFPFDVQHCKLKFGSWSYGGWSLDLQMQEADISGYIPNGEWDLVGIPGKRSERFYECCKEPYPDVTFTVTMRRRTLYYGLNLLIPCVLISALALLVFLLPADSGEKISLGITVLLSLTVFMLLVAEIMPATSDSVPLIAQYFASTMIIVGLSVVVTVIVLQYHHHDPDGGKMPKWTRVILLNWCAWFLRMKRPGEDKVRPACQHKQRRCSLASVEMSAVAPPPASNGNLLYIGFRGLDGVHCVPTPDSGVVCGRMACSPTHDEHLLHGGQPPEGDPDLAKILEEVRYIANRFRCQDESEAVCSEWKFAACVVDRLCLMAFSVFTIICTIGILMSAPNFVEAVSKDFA
Sequence of human α6/α3β2β3 nAChR (human) (P17787 26-502, chain 1 of 2): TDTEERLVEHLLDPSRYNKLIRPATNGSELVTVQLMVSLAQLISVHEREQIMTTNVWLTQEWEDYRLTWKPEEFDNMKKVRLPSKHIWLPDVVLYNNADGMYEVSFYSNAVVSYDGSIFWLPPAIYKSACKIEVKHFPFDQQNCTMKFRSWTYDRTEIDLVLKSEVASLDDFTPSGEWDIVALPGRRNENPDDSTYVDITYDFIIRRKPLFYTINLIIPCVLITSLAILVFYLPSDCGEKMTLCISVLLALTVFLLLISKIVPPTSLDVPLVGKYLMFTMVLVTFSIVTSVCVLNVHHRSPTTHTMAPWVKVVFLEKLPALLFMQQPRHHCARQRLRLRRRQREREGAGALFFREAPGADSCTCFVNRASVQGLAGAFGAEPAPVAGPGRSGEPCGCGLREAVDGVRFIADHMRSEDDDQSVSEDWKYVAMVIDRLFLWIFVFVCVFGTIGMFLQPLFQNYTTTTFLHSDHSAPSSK
Sequence of human α6/α3β2β3 nAChR (human) (Q05901 22-458, chain 2 of 2, further chain): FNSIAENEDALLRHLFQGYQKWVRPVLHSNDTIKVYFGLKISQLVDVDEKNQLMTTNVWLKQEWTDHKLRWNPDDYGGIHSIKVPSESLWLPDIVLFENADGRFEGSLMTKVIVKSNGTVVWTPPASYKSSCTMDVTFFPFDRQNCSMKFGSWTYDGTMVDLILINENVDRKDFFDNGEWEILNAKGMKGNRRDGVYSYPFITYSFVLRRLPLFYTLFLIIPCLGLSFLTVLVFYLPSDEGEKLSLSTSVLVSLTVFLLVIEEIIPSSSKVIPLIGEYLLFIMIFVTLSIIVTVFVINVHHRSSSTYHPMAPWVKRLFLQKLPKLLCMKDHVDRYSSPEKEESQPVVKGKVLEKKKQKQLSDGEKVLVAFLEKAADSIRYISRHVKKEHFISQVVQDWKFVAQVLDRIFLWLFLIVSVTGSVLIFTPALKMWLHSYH
Sequence of rat α6/α3β4 nAChR (rat) (P12392 21-495): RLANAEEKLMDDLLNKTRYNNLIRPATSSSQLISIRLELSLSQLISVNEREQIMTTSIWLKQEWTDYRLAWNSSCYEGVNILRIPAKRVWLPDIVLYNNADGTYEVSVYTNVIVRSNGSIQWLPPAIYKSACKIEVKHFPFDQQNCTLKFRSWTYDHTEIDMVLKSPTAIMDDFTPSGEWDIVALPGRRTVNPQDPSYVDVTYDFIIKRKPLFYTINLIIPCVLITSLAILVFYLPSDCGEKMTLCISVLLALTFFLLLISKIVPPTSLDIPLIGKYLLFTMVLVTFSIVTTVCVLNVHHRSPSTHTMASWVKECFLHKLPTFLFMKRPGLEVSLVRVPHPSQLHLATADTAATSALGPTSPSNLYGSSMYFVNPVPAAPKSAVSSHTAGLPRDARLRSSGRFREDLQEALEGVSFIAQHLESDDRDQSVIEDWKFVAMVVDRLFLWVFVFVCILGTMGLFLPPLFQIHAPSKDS
Sequence of rat α7 nAChR (rat) (Q05941 23-502): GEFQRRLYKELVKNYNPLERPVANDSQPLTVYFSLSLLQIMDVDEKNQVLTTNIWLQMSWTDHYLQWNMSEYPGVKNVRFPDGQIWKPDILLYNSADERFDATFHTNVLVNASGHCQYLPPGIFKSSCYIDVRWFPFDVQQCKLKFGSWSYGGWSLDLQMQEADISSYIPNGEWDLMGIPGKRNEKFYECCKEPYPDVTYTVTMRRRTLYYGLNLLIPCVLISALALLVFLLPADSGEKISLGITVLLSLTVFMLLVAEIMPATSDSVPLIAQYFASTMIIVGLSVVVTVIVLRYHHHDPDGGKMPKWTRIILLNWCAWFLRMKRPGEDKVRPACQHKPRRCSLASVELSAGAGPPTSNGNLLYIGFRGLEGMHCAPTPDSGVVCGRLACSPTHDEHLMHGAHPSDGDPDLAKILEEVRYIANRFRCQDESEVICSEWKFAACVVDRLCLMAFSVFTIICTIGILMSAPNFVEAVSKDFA

Substance	Half-blocking dose IC50, ACh-gated current, oocyte voltage clamp [1]	Half-blocking dose IC50, ACh-gated current, oocyte voltage clamp (human α7 nAChR (human))	Half-blocking dose IC50, NMDA receptor current, oocyte voltage clamp [2]	Half-blocking dose IC50, NMDA receptor current, oocyte voltage clamp [3]	Half-blocking dose IC50, NMDA receptor current, oocyte voltage clamp [4]	Half-blocking dose IC50, NMDA receptor current, oocyte voltage clamp [5]	Half-blocking dose IC50, ACh-gated current, oocyte voltage clamp (rat α6/α3β4 nAChR (rat))	Half-blocking dose IC50, ACh-gated current, oocyte voltage clamp (rat α7 nAChR (rat))	Half-blocking dose IC50, ACh-gated current, oocyte voltage clamp (rat α4β2 nAChR (rat))
αO-conotoxin GeXIVA13 (GeXIVA mature peptide isomer with disulfide bonds I-III, II-IV)	141 nM	3300 nM	> 10000 nM	> 10000 nM and 17000 nM	> 10000 nM	> 10000 nM	483 nM	4960 nM	–
αO-conotoxin GeXIVA14 (GeXIVA mature peptide isomer with disulfide bonds I-IV, II-III)	197 nM	865 nM	7400 nM	–	> 10000 nM	> 10000 nM	611 nM	1740 nM	200 nM
